From the supplement of paper PMC12042874
± gives the uncertainty stated by the source.

Test: amyloid nucleation score (Sup35N fusion, yeast selection) (log enrichment); library NNK2; higher = more nucleation; inactive = no reads after selection
Summary of the method: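 Three technical output replicates were used for random libraries. Psi-negative yeast expressing peptides of 20 random codons fused to Sup35N were induced with 100 μM copper sulfate for 24 hours and grown 7 days at 30°C on medium lacking adenine and uracil, and input and output plasmid inserts were Illumina-sequenced, excluding sequences with under 100 input reads. The nucleation score is the DiMSum log enrichment of output over input reads, centred on the mode score of non-aggregating sequences.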

Substance	amyloid nucleation score
RLENMCMASPR	0.464 ± 0.46
RLFVPFVFFQAMPTEREPFH	-0.79 ± 1
RLFYGCITGIVVSSILGVCM	2.47 ± 0.21
RLFYYSSFYKDY	inactive
RLGRC	0.94 ± 0.33
RLIIPIQSCLWGGWYRTGET	8.106 ± 0.054
RLILY	-0.775 ± 0.43
RLINRSDEVYSFLFKRRGSK	inactive
RLIRFSIMEV	-0.291 ± 0.54
RLLHYAFAFTARV	3.15 ± 0.068
RLLSTCMILMMASRTCYVYN	0.69 ± 0.52
RLMFLVFSESSKYSALHMWG	0.939 ± 0.19
RLPHSVSALSLKILGGARAR	0.02 ± 0.56
RLRFPSPFRTVNWSFIRFAR	5.03 ± 0.069
RLRNI	0.399 ± 0.2
RLRYM	-0.631 ± 0.76
RLSDLTQVLLDSLTRCGWWG	0.841 ± 0.43
RLSFQSCCLPFVYWNWW	7.738 ± 0.048
RLSGRVTCSVNVGHSLKGTV	4.529 ± 0.045
RLSLNFDVRLC	1.21 ± 0.61
RLSPPLCVLIYIMRYLNGYW	0.42 ± 0.66
RLTQCLVHRPYPV	0.572 ± 0.3
RLYKSARVASHVDLGCTFRC	1.35 ± 0.18
RMIPCLLRFGTYLFF	-0.509 ± 1.1
RMNWGSNFLEE	-0.663 ± 0.32
RMRCTIMLMTGKRTCYLMRE	-0.216 ± 0.41

Substance	amyloid nucleation score
RMSIWRFRMSLAQDGLGRFQ	5.564 ± 0.044
RMVTVAS	1.68 ± 0.32
RMWDSSCSLRGMRLGVYRAR	0.396 ± 0.53
RMYLVYNFLRLDLSARVVLA	inactive
RNADI	0.343 ± 0.46
RNAKMMTSSLVYNWFVFAER	5.353 ± 0.045
RNAQPLNGPRSPVSGTDWYS	0.092 ± 1.1
RNFDMPLLAYGMTWEQLMEF	4.51 ± 0.058
RNFRSCP	0.797 ± 0.44
RNIGAR	0.635 ± 0.16
RNPNVEVCRKQFRVGCSLAN	-0.931 ± 0.39
RNSSYIDFIGRWH	inactive
RNTTKWKMMTLTFNCTRRKK	-0.766 ± 1
RNYEGPPGDLGQQVLSHSMP	-0.853 ± 0.63
RPHTLGHRCSCQSNFFLLPL	0.025 ± 1.1
RPLLKRKESM	0.573 ± 0.28
RPNFFVLNSNMNNYVQARVP	4.59 ± 0.047
RPNNLDMVH	0.619 ± 0.57
RPRRSTGCIFVDCKSKQHCI	2.84 ± 0.15
RPTHEAF	5.87 ± 0.089
RQMPVGGCVFMTKVCKT	0.232 ± 0.64
RQVANWAVVIGNPMVMNPEG	-0.295 ± 0.63
RQVSHVNFAVLNINYNWYRS	8.16 ± 0.084
RRETRMGVSSVLDPVAGRWP	1.58 ± 0.17
RRLWGIALYRVSLVVFGSLY	-0.354 ± 0.25
RRMYMQPTKLPFYIPGRMCP	inactive

Substance	amyloid nucleation score
RRSTWSISLS	-0.916 ± 0.45
RRSWDTYMGERGHQLPNPCG	0.93 ± 0.36
RRYMSVDSK	inactive
RRYMVMSDWLDKPWWGYFGV	-0.855 ± 0.24
RSCMMCTT	0.266 ± 0.41
RSCPFAFGEGG	0.782 ± 0.55
RSCSFRRLSGSVETLSGWAK	0.35 ± 0.43
RSDRVIGDMTGAECITLGRL	-0.82 ± 0.45
RSDVFIGTSIFGALSCV	-0.025 ± 0.45
RSFGSYCAGEGTRSPRDSRG	0.172 ± 0.65
RSFLWVFRKYRGW	0.783 ± 0.66
RSFMVRRFVNANIEIMIRRI	inactive
RSGESRWTYYLVEIYFDGSF	-0.913 ± 0.78
RSGWVEPSNITVIWVKMLVQ	0.166 ± 0.55
RSGYGWTVLFERLSKHCEFK	-0.301 ± 0.39
RSHMYSGYIYLIQKTFLREV	-1.29 ± 0.26
RSHPKMMSDICSV	0.178 ± 0.65
RSHTTGLPS	0.718 ± 0.15
RSIDRYRHHNLCRNQYVM	-0.693 ± 1.1
RSIWMKLCMWIECSDKETRF	4.17 ± 0.13
RSLLVEFRRYKQRH	6.238 ± 0.062
RSLSA	1.02 ± 0.34
RSMSRRGFLCLHR	0.948 ± 0.67
RSMYFGVQSLMYRSRLPKGS	4.01 ± 0.067
RSPDKDSMQTTLLIRRVTSW	1.14 ± 0.48
RSQIPNYYWQYMLVYSYLQG	0.201 ± 0.74

Substance	amyloid nucleation score
RSWKLGVDGWPLMSEFP	1.64 ± 0.29
RTARPILDPC	inactive
RTCSRGSFTYMEIGNVGRGC	0.275 ± 0.5
RTEDPKTDYVKRGKRKWRVW	-0.129 ± 1.1
RTLFV	-0.146 ± 0.63
RTRCYCVYFRLLVHFA	0.057 ± 1.1
RTSSL	-0.336 ± 0.49
RTYGYRDIQVQYRFCFCRGD	8.589 ± 0.057
RTYLGLVLGF	inactive
RVCPFSQYHVFVS	-0.155 ± 0.18
RVDKMMYSRLPCLVAV	0.466 ± 0.49
RVDYSMREFCLSSRAREDTV	-0.353 ± 0.42
RVFNLNKKMNFSTISG	-0.942 ± 1.1
RVIQLQKVTHWW	2.72 ± 0.078
RVLKFFYGLTRVVS	1.23 ± 0.12
RVLREKCSIGVAGKYSY	-0.512 ± 0.49
RVMFYVINEVWDMNSARTNT	6.38 ± 0.08
RVMMLEGQASNMAYEEL	0.274 ± 1.1
RVNEMWIQI	-0.138 ± 0.76
RVNTLLHILMYFNCLSGVEL	4.88 ± 0.049
RVRKNCRFWSNCSCIVMVGR	5.07 ± 0.059
RVRSGKKHDW	1.01 ± 0.14
RVSCNRVRVYCWLVWRLIPN	inactive
RVSRRCVYWRRQGHWAIFGQ	0.098 ± 1
RVTFSLWFADFIQNNLLKK	0.158 ± 0.5
RVTNLIHQLRVPKIGKSGFA	0.294 ± 0.23

Substance	amyloid nucleation score
RVVQPKFMLGVQYSAIQFNS	2.47 ± 0.089
RWATAKRI	0.194 ± 0.49
RWCQE	-0.288 ± 0.53
RWCSSYRYIHSGGRNASGSF	-0.108 ± 0.8
RWDCLQLLISSCFFDMDGCG	-0.668 ± 0.64
RWHLFSITYLKVLDWDCCLW	5.45 ± 0.034
RWLTGMLDVVPYTFCEEV	inactive
RWPNLSDAQVWAPTSQLLSS	0.92 ± 0.32
RYALFSARIYSLYWLWFCIF	inactive
RYFRATPKVCRLH	0.175 ± 0.26
RYGRRSYLPAIIRCARCLDE	6.56 ± 0.066
RYGVRTSAPNMQWLFAGWS	0.613 ± 0.74
RYHSRAWAPYCTTHATVPEV	1.28 ± 0.29
RYNIVLGRLL	inactive
RYNRN	-0.195 ± 0.36
RYRHLTFLVFCIAVPVGFWR	2.04 ± 0.14
RYSITGTYYIA	3.63 ± 0.057
RYSRFSDQSMFSRPYA	0.333 ± 0.31
RYTSVYSGRSENG	inactive
RYYLNL	3.83 ± 0.091
SADRRQGITRFGTFNGGVRS	0.481 ± 0.24
SAIKYIGILAMRDQDQASQI	-1.59 ± 0.62
SAMLDRFYGVRFTMFCRAEH	0.299 ± 0.61
SARWYILRVFIFFIPRSAYK	-1.59 ± 0.76
SASVHYHYDMK	0.268 ± 0.62
